Laboratory results: doi:10.1101/2020.01.04.893909 (bioRxiv, 2020)

Biological target: the molecule itself
Experiment: SEC

B1: S. cerevisiae homologue of GAP (Rna1), recombinant (natural protein, UniProt P11745 1-407, looked up)
chain: MATLHFVPQHEEEQVYSISGKALKLTTSDDIKPYLEELAALKTCTKLDLSGNTIGTEASEALAKCIAENTQVRESLVEVNFADLYTSRLVDEVVDSLKFLLPVLLKCPHLEIVNLSDNAFGLRTIELLEDYIAHAVNIKHLILSNNGMGPFAGERIGKALFHLAQNKKAASKPFLETFICGRNRLENGSAVYLALGLKSHSEGLKVVKLYQNGIRPKGVATLIHYGLQYLKNLEILDLQDNTFTKHASLILAKALPTWKDSLFELNLNDCLLKTAGSDEVFKVFTEVKFPNLHVLKFEYNEMAQETIEVSFLPAMEKGNLPELEKLEINGNRLDEDSDALDLLQSKFDDLEVDDFEEVDSEDEEGEDEEDEDEDEKLEEIETERLEKELLEVQVDDLAERLAETEIK
B1: binds.
